Results reported in the Human Domainome abundance scans (Beltran et al. 2025).
± gives the uncertainty stated by the source.

Assay: abundance fitness (aPCA) (normalised: wild type 0, dead -1); higher = more abundant; growth selection in yeast, the domain comes from the species named
Settings: Homo sapiens

In order of falling abundance fitness:
1. Lipoamide acyltransferase component of branched-chain alpha-keto acid dehydrogenase complex, mitochondrial N184S, P11182  0.168 ± 0.38
2. Lipoamide acyltransferase component of branched-chain alpha-keto acid dehydrogenase complex, mitochondrial L209K, P11182  0.079 ± 0.087
3. Lipoamide acyltransferase component of branched-chain alpha-keto acid dehydrogenase complex, mitochondrial L209I, P11182  0.047 ± 0.17
4. Lipoamide acyltransferase component of branched-chain alpha-keto acid dehydrogenase complex, mitochondrial L209A, P11182  0.037 ± 0.043
5. Lipoamide acyltransferase component of branched-chain alpha-keto acid dehydrogenase complex, mitochondrial N207A, P11182  0.034 ± 0.04
6. Lipoamide acyltransferase component of branched-chain alpha-keto acid dehydrogenase complex, mitochondrial M182A, P11182  0.018 ± 0.072
7. Lipoamide acyltransferase component of branched-chain alpha-keto acid dehydrogenase complex, mitochondrial N185K, P11182  0.016 ± 0.1
8. Lipoamide acyltransferase component of branched-chain alpha-keto acid dehydrogenase complex, mitochondrial L209R, P11182  0.006 ± 0.036
9. Lipoamide acyltransferase component of branched-chain alpha-keto acid dehydrogenase complex, mitochondrial L209V, P11182  0.006 ± 0.039
10. Lipoamide acyltransferase component of branched-chain alpha-keto acid dehydrogenase complex, mitochondrial L206V, P11182  -0.026 ± 0.043
11. Lipoamide acyltransferase component of branched-chain alpha-keto acid dehydrogenase complex, mitochondrial L209S, P11182  -0.026 ± 0.041
12. Lipoamide acyltransferase component of branched-chain alpha-keto acid dehydrogenase complex, mitochondrial L206Q, P11182  -0.028 ± 0.051
13. Lipoamide acyltransferase component of branched-chain alpha-keto acid dehydrogenase complex, mitochondrial L209C, P11182  -0.052 ± 0.057
14. Lipoamide acyltransferase component of branched-chain alpha-keto acid dehydrogenase complex, mitochondrial L206R, P11182  -0.071 ± 0.035
15. Lipoamide acyltransferase component of branched-chain alpha-keto acid dehydrogenase complex, mitochondrial L206S, P11182  -0.072 ± 0.049
16. Lipoamide acyltransferase component of branched-chain alpha-keto acid dehydrogenase complex, mitochondrial L209Q, P11182  -0.072 ± 0.043
17. Lipoamide acyltransferase component of branched-chain alpha-keto acid dehydrogenase complex, mitochondrial L209G, P11182  -0.081 ± 0.034
18. Lipoamide acyltransferase component of branched-chain alpha-keto acid dehydrogenase complex, mitochondrial N185E, P11182  -0.09 ± 0.086
19. Lipoamide acyltransferase component of branched-chain alpha-keto acid dehydrogenase complex, mitochondrial N184R, P11182  -0.097 ± 0.072
20. Lipoamide acyltransferase component of branched-chain alpha-keto acid dehydrogenase complex, mitochondrial L209T, P11182  -0.131 ± 0.058
21. Lipoamide acyltransferase component of branched-chain alpha-keto acid dehydrogenase complex, mitochondrial L206W, P11182  -0.135 ± 0.052
22. Lipoamide acyltransferase component of branched-chain alpha-keto acid dehydrogenase complex, mitochondrial L209N, P11182  -0.138 ± 0.073
23. Lipoamide acyltransferase component of branched-chain alpha-keto acid dehydrogenase complex, mitochondrial L209E, P11182  -0.153 ± 0.04
24. Lipoamide acyltransferase component of branched-chain alpha-keto acid dehydrogenase complex, mitochondrial N185Q, P11182  -0.155 ± 0.11
25. Lipoamide acyltransferase component of branched-chain alpha-keto acid dehydrogenase complex, mitochondrial N184Q, P11182  -0.16 ± 0.1
26. Lipoamide acyltransferase component of branched-chain alpha-keto acid dehydrogenase complex, mitochondrial N185H, P11182  -0.164 ± 0.16
27. Lipoamide acyltransferase component of branched-chain alpha-keto acid dehydrogenase complex, mitochondrial N185R, P11182  -0.165 ± 0.1
28. Lipoamide acyltransferase component of branched-chain alpha-keto acid dehydrogenase complex, mitochondrial M182T, P11182  -0.173 ± 0.075
29. Lipoamide acyltransferase component of branched-chain alpha-keto acid dehydrogenase complex, mitochondrial N185D, P11182  -0.178 ± 0.092
30. Lipoamide acyltransferase component of branched-chain alpha-keto acid dehydrogenase complex, mitochondrial N184W, P11182  -0.179 ± 0.1
31. Lipoamide acyltransferase component of branched-chain alpha-keto acid dehydrogenase complex, mitochondrial L209D, P11182  -0.203 ± 0.045
32. Lipoamide acyltransferase component of branched-chain alpha-keto acid dehydrogenase complex, mitochondrial N185A, P11182  -0.21 ± 0.074
33. Lipoamide acyltransferase component of branched-chain alpha-keto acid dehydrogenase complex, mitochondrial L209F, P11182  -0.211 ± 0.098
34. Lipoamide acyltransferase component of branched-chain alpha-keto acid dehydrogenase complex, mitochondrial L209P, P11182  -0.226 ± 0.051
35. Lipoamide acyltransferase component of branched-chain alpha-keto acid dehydrogenase complex, mitochondrial L209Y, P11182  -0.232 ± 0.087
36. Lipoamide acyltransferase component of branched-chain alpha-keto acid dehydrogenase complex, mitochondrial L209W, P11182  -0.27 ± 0.047
37. Lipoamide acyltransferase component of branched-chain alpha-keto acid dehydrogenase complex, mitochondrial N185M, P11182  -0.273 ± 0.18
38. Lipoamide acyltransferase component of branched-chain alpha-keto acid dehydrogenase complex, mitochondrial N184G, P11182  -0.294 ± 0.093
39. Lipoamide acyltransferase component of branched-chain alpha-keto acid dehydrogenase complex, mitochondrial N184L, P11182  -0.325 ± 0.11
40. Lipoamide acyltransferase component of branched-chain alpha-keto acid dehydrogenase complex, mitochondrial M182I, P11182  -0.408 ± 0.24
41. Lipoamide acyltransferase component of branched-chain alpha-keto acid dehydrogenase complex, mitochondrial M182C, P11182  -0.478 ± 0.12
42. Lipoamide acyltransferase component of branched-chain alpha-keto acid dehydrogenase complex, mitochondrial N185L, P11182  -0.514 ± 0.26
43. Lipoamide acyltransferase component of branched-chain alpha-keto acid dehydrogenase complex, mitochondrial N185W, P11182  -0.688 ± 0.16
44. Lipoamide acyltransferase component of branched-chain alpha-keto acid dehydrogenase complex, mitochondrial N185V, P11182  -0.744 ± 0.1
45. Lipoamide acyltransferase component of branched-chain alpha-keto acid dehydrogenase complex, mitochondrial N185I, P11182  -0.83 ± 0.09
46. Lipoamide acyltransferase component of branched-chain alpha-keto acid dehydrogenase complex, mitochondrial N184E, P11182  -0.859 ± 0.39
47. Lipoamide acyltransferase component of branched-chain alpha-keto acid dehydrogenase complex, mitochondrial N185P, P11182  -1.01 ± 0.17
48. Lipoamide acyltransferase component of branched-chain alpha-keto acid dehydrogenase complex, mitochondrial N184P, P11182  -1.08 ± 0.4
